The text below walks through data of patent publication US20250171542A1.

This experiment deals with Trop2 on MDA-MB-231 cell surface (UniProt P09758). The experiment is described as follows: cell-based or functional assay.
Trop2 on MDA-MB-231 cell surface, sequence (P09758 27-323 limits assumed): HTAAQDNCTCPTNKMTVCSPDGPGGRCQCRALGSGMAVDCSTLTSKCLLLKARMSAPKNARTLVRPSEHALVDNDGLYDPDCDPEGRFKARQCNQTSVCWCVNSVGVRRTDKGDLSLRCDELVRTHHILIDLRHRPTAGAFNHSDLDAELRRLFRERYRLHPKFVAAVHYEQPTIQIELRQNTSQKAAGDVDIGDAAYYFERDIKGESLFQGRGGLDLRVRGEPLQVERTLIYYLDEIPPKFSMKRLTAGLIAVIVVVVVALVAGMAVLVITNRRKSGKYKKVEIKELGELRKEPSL

B1: Trodelvy (Sacituzumab govitecan-hziy, Immunomedics) (antibody, INN chains, looked up, V domains shown)
VH: QVQLQQSGSELKKPGASVKVSCKASGYTFTNYGMNWVKQAPGQGLKWMGWINTYTGEPTYTDDFKGRFAFSLDTSVSTAYLQISSLKADDTAVYFCARGGFGSSYWYFDVWGQGSLVTVSS
VL: DIQLTQSPSSLSASVGDRVSITCKASQDVSIAVAWYQQKPGKAPKLLIYSASYRYTGVPDRFSGSGSGTDFTLTISSLQPEDFAVYYCQQHYITPLTFGAGTKVEIKR
modifications: govitecan (SN-38) payload
B1: the Internalization (%), FACS, 0.25 µg/ml, 2 h stood at 35.7%; the Internalization (%), FACS, 0.25 µg/ml, 4 h was 45.1%; the Internalization (%), FACS, 0.5 µg/ml, 2 h is 38%; the Internalization (%), FACS, 0.5 µg/ml, 4 h turned out to be 45.6%. The same molecule registered an Internalization (%), FACS, 1 µg/ml, 2 h of 36.5%; an Internalization (%), FACS, 1 µg/ml, 4 h of 44.5%; an Internalization (%), FACS, 2 µg/ml, 2 h of 36.2%; an Internalization (%), FACS, 2 µg/ml, 4 h of 46.1%.
